In US20240376218A1 (published 2024):
Where a chain is given by its changes, count along the chain named.

B1: TPP-18205 (004-F10_497A-M296-L12+497A-M326-O09-hIgG1Lambda), afucosylated (antibody, V domains shown)
VH: EVQLLESGGGLVQPGGSLRLSCAASGFTFSSYAMSWVRQAPGKGLEWVSGIRWNSGSKGYAGSVKGRFTISRDNSKNTLYLQMNSLRAEDTAVYYCVRSGNYYVGYHGMDVWGQGTLVTVSS
VL: QSVLTQPPSASGTPGQRVTISCSGGNSNIGTYFVSWYQQLPGTAPKLLIYTNNQRPSGVPDRFSGSKSGTSASLAISGLRSEDEADYYCETWDSNTRVFGGGTKLTVLG
modifications: afucosylated N-glycan at N297
B2: TPP-18205 (004-F10_497A-M296-L12+497A-M326-O09-hIgG1Lambda), WT (antibody, V domains shown)
VH: B1 VH
VL: B1 VL
B3: TPP-17577 (497A-M178-K09-1-hIgG1Lambda), WT (antibody, V domains shown)
VH: EVQLLESGGGLLQPGGSLRLSCAASGFTFSNAWMSWVRQAPGKGLEWVAVISYDGRNKYSADSVKGRFTISRDNSKNTLYLQMNSLRAEDTAVYYCARGLPYGYWGQGTLVTVSS
VL: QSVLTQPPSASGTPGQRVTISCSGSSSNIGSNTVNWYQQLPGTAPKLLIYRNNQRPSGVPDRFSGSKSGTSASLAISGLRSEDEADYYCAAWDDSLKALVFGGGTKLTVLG
B4: TPP-17577 (497A-M178-K09-1-hIgG1Lambda), afucosylated (antibody, V domains shown)
VH: B3 VH
VL: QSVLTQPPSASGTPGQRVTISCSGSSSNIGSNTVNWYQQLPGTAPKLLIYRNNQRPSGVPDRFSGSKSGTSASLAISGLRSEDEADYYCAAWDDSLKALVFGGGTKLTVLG
modifications: afucosylated N-glycan at N297
B5: TPP-17578 (497A-M128-B10-1-hIgG1Lambda), afucosylated (antibody, V domains shown)
VH: EVQLLESGGGLVQPGGSLRLSCAASGFTFSNAWMSWVRQAPGKGLEWVSGINWNGGSTGYADSVKGRFTISRDNSKNTLYLQMNSLRAEDTAVYYCVRTYSGHYGPYFDNWGQGTLVTVSS
VL: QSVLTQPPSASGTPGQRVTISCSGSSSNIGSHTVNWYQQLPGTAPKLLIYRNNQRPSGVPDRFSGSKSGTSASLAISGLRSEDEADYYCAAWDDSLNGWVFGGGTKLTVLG
modifications: afucosylated N-glycan at N297
B6: TPP-17578 (497A-M128-B10-1-hIgG1Lambda), WT (antibody, V domains shown)
VH: B5 VH
VL: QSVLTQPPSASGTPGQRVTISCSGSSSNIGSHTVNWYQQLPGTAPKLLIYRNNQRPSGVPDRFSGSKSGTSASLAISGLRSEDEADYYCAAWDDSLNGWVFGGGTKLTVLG
B7: TPP-20950, afucosylated (antibody, human IgG1, lambda, V domains shown)
VH: EVQLLESGGGLVQPGGSLRLSCAASGFTFSSYGMHWVRQAPGKGLEWVSAIKWGGGSHGYADSVKGRFTISRDNSKNTLYLQMNSLRAEDTAVYYCARGHHSGKDGRFFDYWGQGTLVTVSS
VL: QSVLTQPPSVSGAPGQRVTISCTGSSSNIGAGYNVHWYQQLPGTAPKLLIYTNNRRPSGVPDRFSGSKSGTSASLAISGLRSEDEADYYCAAWDASLSGWVFGGGTKLTVLG
modifications: afucosylated (no fucose on the N-glycan at N297)
B8: TPP-20955, afucosylated (antibody, human IgG1, lambda, V domains shown)
VH: B7 VH with S102K, K104Y
VL: B7 VL
modifications: afucosylated (no fucose on the N-glycan at N297)
B9: TPP-19546, afucosylated (antibody, human IgG1, lambda, V domains shown)
VH: B5 VH with N31S, N52S, N54S, V97A, N110Y
VL: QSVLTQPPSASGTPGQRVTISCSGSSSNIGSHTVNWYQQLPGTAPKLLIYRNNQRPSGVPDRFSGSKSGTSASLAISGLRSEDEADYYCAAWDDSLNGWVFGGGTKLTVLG
modifications: afucosylated (no fucose on the N-glycan at N297)
B10: TPP-20950 (18206-gl-42-hIgG1wt-Lambda), afucosylated (antibody, V domains shown)
VH: B7 VH
VL: B7 VL
modifications: afucosylated (no fucose on the N-glycan at N297)
B11: TPP-20955 (18206-gl-47-hIgG1wt-Lambda), afucosylated (antibody, V domains shown)
VH: B7 VH with S102K, K104Y
VL: B7 VL
modifications: afucosylated (no fucose on the N-glycan at N297)
B12: TPP-21045 (17578-gl79-hIgG1-wt-Lambda), afucosylated (antibody, V domains shown)
VH: B5 VH with N31S, N52S, N54S, D62L, V97A, Y107F, N110Y
VL: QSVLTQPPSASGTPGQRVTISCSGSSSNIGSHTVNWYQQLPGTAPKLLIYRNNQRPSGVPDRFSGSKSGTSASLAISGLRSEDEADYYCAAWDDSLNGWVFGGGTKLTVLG
modifications: afucosylated (no fucose on the N-glycan at N297)
B13: TPP-19546 (17578-gl33-hIgG1Lambda), afucosylated (antibody, V domains shown)
VH: B5 VH with N31S, N52S, N54S, V97A, N110Y
VL: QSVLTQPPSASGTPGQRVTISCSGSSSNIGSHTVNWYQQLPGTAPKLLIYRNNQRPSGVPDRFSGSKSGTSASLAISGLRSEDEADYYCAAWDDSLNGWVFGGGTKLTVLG
modifications: afucosylated (no fucose on the N-glycan at N297)
B14: TPP-20965 (18206-gl-58-hIgG1wt-Lambda), afucosylated (antibody, V domains shown)
VH: B7 VH with H58T
VL: B7 VL
modifications: afucosylated (no fucose on the N-glycan at N297)
B15: TPP-21045 (17578-gl79-hIgG1-wt-Lambda), wild type (antibody, V domains shown)
VH: B5 VH with N31S, N52S, N54S, D62L, V97A, Y107F, N110Y
VL: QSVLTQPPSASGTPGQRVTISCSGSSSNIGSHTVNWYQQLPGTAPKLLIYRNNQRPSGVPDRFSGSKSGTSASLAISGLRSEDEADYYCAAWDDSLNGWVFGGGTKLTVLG
B16: TPP-19546 (17578-gl33-hIgG1Lambda), wild type (antibody, V domains shown)
VH: B5 VH with N31S, N52S, N54S, V97A, N110Y
VL: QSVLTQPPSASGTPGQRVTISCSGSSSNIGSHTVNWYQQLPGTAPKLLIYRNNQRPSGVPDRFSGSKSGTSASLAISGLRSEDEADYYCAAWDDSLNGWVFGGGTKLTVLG
B17: TPP-18205 (antibody, human IgG1, lambda, V domains shown)
VH: B1 VH
VL: B1 VL
B18: TPP-17577 (antibody, human IgG1, lambda, V domains shown)
VH: B3 VH
VL: not shown
B19: TPP-17578 (antibody, human IgG1, lambda, V domains shown)
VH: B5 VH
VL: not shown

target: human CCR8 (P51685_CCR8_HUMAN) (human, UniProt P51685 1-355); assay: cell-based or functional assay

Row | Binder | ADCC EC50, activated Tregs + NK92v, Donor 1213 [nM] | ADCC EC50, activated Tregs + NK92v, Donor 1730 [nM] | ADCC Max Response, activated Tregs + NK92v, Donor 1213 [%] | ADCC Max Response, activated Tregs + NK92v, Donor 1730 [%]
1 | B1 | 0.23 | 1.05 | 52 | 58
2 | B2 | ~0.00558 | ~0.018 | 20 | 24
3 | B3 |  |  | 10 | 13
4 | B4 | 1.85 | 4.57 | 41 | 40
5 | B5 | 9.2 | 19 | 25 | 38
6 | B6 |  | 197000 | 5 | 8

target: human CCR8 (human, UniProt P51685 1-355); assay: cell-based or functional assay

Row | Binder | ADCC Max Response (%); activated human Tregs (Donor 1100) as target cells, NK92v effector cells [%] | ADCC hTreg EC50 (pM); activated human Tregs (Donor 1100) as target cells, NK92v effector cells [pM]
7 | B7 | 97 | 9.51
8 | B8 | 91 | 5.82
9 | B9 | 54 | 8840

target: T1, human CCR8 (human, UniProt P51685 1-355); assay: cell-based or functional assay

Row | Binder | ADCP EC50 (pM); activated human Tregs donor 1212 + M2c macrophages [pM] | ADCP Max Response (%); activated human Tregs donor 1212 + M2c macrophages [%]
10 | B10 | 128 | 32
11 | B11 | 408 | 29
12 | B12 | 1220 | 30
13 | B13 |  | 20

target: T1, human CCR8; assay: cell-based or functional assay; remark: another data set of the same source

Row | Binder | ADCP EC50 (pM); activated human Tregs donor 1163 + M2c donor 1 [pM] | ADCP Max Response (%); activated human Tregs donor 1163 + M2c donor 1 [%]
14 | B14 | 766 | 44
15 | B12 | 30.1 | 28
16 | B15 | 130 | 27
17 | B16 |  | 14
18 | B13 |  | 15

target: T1, human CCR8; assay: cell-based or functional assay; remark: another data set of the same source

Row | Binder | ADCP EC50 (pM); activated human Tregs donor 1163 + M2c donor 2 [pM] | ADCP Max Response (%); activated human Tregs donor 1163 + M2c donor 2 [%]
19 | B14 | 300 | 36
20 | B12 | 52.9 | 28
21 | B15 | 162 | 27
22 | B16 | ~1.69e+07 | 18
23 | B13 | 404 | 18

target: T1, human CCR8; assay: cell-based or functional assay; remark: another data set of the same source

Row | Binder | ADCP EC50 (pM); activated human Tregs donor 1212 + M2c donor 3 [pM] | ADCP Max Response (%); activated human Tregs donor 1212 + M2c donor 3 [%]
24 | B10 | 23 | 14
25 | B14 | 163 | 14
26 | B11 | 14 | 13
27 | B12 | 9.2 | 13

target: T1, human CCR8; assay: cell-based or functional assay; remark: another data set of the same source

Row | Binder | ADCP EC50 (pM); activated human Tregs donor 1212 + M2c donor 4 [pM] | ADCP Max Response (%); activated human Tregs donor 1212 + M2c donor 4 [%]
28 | B10 | 10.7 | 24
29 | B14 | 563 | 23
30 | B11 | 13.2 | 23
31 | B12 | 17.1 | 23

target: human CCR8 (human, UniProt P51685 1-355); assay: cell-based or functional assay; remark: another data set of the same source

Row | Binder | Ca flux assay IC50 (nM), block of signaling induced by CCL1 at 80 ng/ml; CHO cells expressing human CCR8 [nM]
32 | B17 | 1.6
33 | B18 | 93.8
34 | B19 | 4.53
